# Experimental data taken from US7807788.
# Values joined by “and” are separate entries in the source; they are usually repeats but may differ in a detail not shown here. Identical values can stand only once.
# T1: IL-13 16 mer peptide 39
# T1 sequence (peptide, N-terminal biotin; C-terminal amide): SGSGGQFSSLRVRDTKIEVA
# T2: IL-13 16 mer peptide 2
# T2 sequence (peptide, N-terminal biotin; C-terminal amide): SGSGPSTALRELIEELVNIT
# T3: IL-13 16 mer peptide 37
# T3 sequence (peptide, N-terminal biotin; C-terminal amide): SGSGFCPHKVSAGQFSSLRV
# T4: IL-13 16 mer peptide 9
# T4 sequence (peptide, N-terminal biotin; C-terminal amide): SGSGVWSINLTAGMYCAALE
# T5: IL-13 16 mer peptide 14
# T5 sequence (peptide, N-terminal biotin; C-terminal amide): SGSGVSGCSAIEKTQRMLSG
# T6: IL-13 16 mer peptide 3
# T6 sequence (peptide, N-terminal biotin; C-terminal amide): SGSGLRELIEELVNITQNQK
# T7: IL-13 16 mer peptide 22
# T7 sequence (peptide, N-terminal biotin; C-terminal amide): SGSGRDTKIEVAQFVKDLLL
# T8: IL-13 16 mer peptide 18
# T8 sequence (peptide, N-terminal biotin; C-terminal amide): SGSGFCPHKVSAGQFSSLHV
# T9: IL-13 16 mer peptide 11
# T9 sequence (peptide, N-terminal biotin; C-terminal amide): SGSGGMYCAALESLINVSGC
# T10: IL-13 16 mer peptide 30
# T10 sequence (peptide, N-terminal biotin; C-terminal amide): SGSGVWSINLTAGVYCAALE
# T11: IL-13 16 mer peptide 10
# T11 sequence (peptide, N-terminal biotin; C-terminal amide): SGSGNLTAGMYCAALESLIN
# T12: IL-13 16 mer peptide 8
# T12 sequence (peptide, N-terminal biotin; C-terminal amide): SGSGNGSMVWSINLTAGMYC
# T13: IL-13 16 mer peptide 36
# T13 sequence (peptide, N-terminal biotin; C-terminal amide): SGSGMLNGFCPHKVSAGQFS
# T14: IL-13 16 mer peptide 12
# T14 sequence (peptide, N-terminal biotin; C-terminal amide): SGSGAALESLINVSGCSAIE
# T15: IL-13 16 mer peptide 6
# T15 sequence (peptide, N-terminal biotin; C-terminal amide): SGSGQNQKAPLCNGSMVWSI
# T16: IL-13 16 mer peptide 5
# T16 sequence (peptide, N-terminal biotin; C-terminal amide): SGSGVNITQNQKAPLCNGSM
# T17: IL-13 16 mer peptide 38
# T17 sequence (peptide, N-terminal biotin; C-terminal amide): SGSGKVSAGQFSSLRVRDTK
# T18: IL-13 16 mer peptide 41
# T18 sequence (peptide, by the resolver, N-terminal biotin on the SGSG spacer; C-terminal amide): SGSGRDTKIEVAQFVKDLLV
# T19: IL-13 16 mer peptide 20
# T19 sequence (peptide, N-terminal biotin; C-terminal amide): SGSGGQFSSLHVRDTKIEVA
# T20: IL-13 16 mer peptide 23
# T20 sequence (peptide, N-terminal biotin; C-terminal amide): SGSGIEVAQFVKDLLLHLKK
# T21: IL-13 16 mer peptide 29
# T21 sequence (peptide, N-terminal biotin; C-terminal amide): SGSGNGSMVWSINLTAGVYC
# T22: IL-13 16 mer peptide 17
# T22 sequence (peptide, N-terminal biotin; C-terminal amide): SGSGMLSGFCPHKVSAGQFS
# T23: IL-13 16 mer peptide 4
# T23 sequence (peptide, N-terminal biotin; C-terminal amide): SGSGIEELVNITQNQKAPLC
# T24: IL-13 16 mer peptide 27
# T24 sequence (peptide, N-terminal biotin; C-terminal amide): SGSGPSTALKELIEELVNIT
# T25: IL-13 16 mer peptide 33
# T25 sequence (peptide, N-terminal biotin; C-terminal amide): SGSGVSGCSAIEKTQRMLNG
# T26: IL-13 16 mer peptide 32
# T26 sequence (peptide, N-terminal biotin; C-terminal amide): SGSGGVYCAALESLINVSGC
# T27: IL-13 16 mer peptide 40
# T27 sequence (peptide, N-terminal biotin; C-terminal amide): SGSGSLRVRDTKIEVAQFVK
# T28: IL-13 16 mer peptide 7
# T28 sequence (peptide, N-terminal biotin; C-terminal amide): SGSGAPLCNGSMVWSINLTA
# T29: IL-13 16 mer peptide 13
# T29 sequence (peptide, N-terminal biotin; C-terminal amide): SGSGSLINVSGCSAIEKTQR
# T30: IL-13 16 mer peptide 21
# T30 sequence (peptide, N-terminal biotin; C-terminal amide): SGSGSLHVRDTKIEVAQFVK
# T31: IL-13 16 mer peptide 42
# T31 sequence (peptide, N-terminal biotin; C-terminal amide): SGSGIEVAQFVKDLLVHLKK
# T32: IL-13 16 mer peptide 35
# T32 sequence (peptide, N-terminal biotin; C-terminal amide): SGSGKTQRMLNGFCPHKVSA
# T33: IL-13 16 mer peptide 28
# T33 sequence (peptide, N-terminal biotin; C-terminal amide): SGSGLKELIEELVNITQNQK
# T34: IL-13 16 mer peptide 34
# T34 sequence (peptide, N-terminal biotin; C-terminal amide): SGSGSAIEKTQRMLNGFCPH
# T35: IL-13 16 mer peptide 31
# T35 sequence (peptide, N-terminal biotin; C-terminal amide): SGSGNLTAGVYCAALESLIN
# T36: IL-13 16 mer peptide 16
# T36 sequence (peptide, N-terminal biotin; C-terminal amide): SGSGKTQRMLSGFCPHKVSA
# T37: IL-13 16 mer peptide 15
# T37 sequence (peptide, N-terminal biotin; C-terminal amide): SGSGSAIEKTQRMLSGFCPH
# T38: IL-13 16 mer peptide 19
# T38 sequence (peptide, N-terminal biotin; C-terminal amide): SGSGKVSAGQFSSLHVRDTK
# B1: mouse monoclonal antibody 6A1 (antibody, mouse IgG1, V domains shown)
# VH: EIQLQQSVAELVRPGASVRLSCTASGFYIKDTYMHWVIQRPEQGLEWIGTIDPANGNTKYVPKFQGKATITADTSSNTAYLRLSSLTSEDTAIYYCARSIYDDYHYDDYYAMDYWGQGTSVTVSS
# VL: DVLMTQTPLSLPVSLGDQASISCRSSQNIVHINGNTYLEWYLQKPGQSPKLLIYKISDRFSGVPDRFSGSGSGTDFTLKISRVEAEDLGVYYCFQGSHVPWTFGGGTKLEIK
# How the values were obtained:
# [1] = molecular target: T1, IL-13 16 mer peptide 39; experiment: 16 mer peptide ELISA; peptide 39
# [2] = molecular target: T2, IL-13 16 mer peptide 2; experiment: 16 mer peptide ELISA; peptide 2
# [3] = molecular target: T3, IL-13 16 mer peptide 37; experiment: 16 mer peptide ELISA; peptide 37
# [4] = molecular target: T4, IL-13 16 mer peptide 9; experiment: 16 mer peptide ELISA; peptide 9
# [5] = molecular target: T5, IL-13 16 mer peptide 14; experiment: 16 mer peptide ELISA; peptide 14
# [6] = molecular target: T6, IL-13 16 mer peptide 3; experiment: 16 mer peptide ELISA; peptide 3
# [7] = molecular target: T7, IL-13 16 mer peptide 22; experiment: 16 mer peptide ELISA; peptide 22
# [8] = molecular target: T8, IL-13 16 mer peptide 18; experiment: 16 mer peptide ELISA; peptide 18
# [9] = molecular target: T9, IL-13 16 mer peptide 11; experiment: 16 mer peptide ELISA; peptide 11
# [10] = molecular target: T10, IL-13 16 mer peptide 30; experiment: 16 mer peptide ELISA; peptide 30
# [11] = molecular target: T11, IL-13 16 mer peptide 10; experiment: 16 mer peptide ELISA; peptide 10
# [12] = molecular target: T12, IL-13 16 mer peptide 8; experiment: 16 mer peptide ELISA; peptide 8
# [13] = molecular target: T13, IL-13 16 mer peptide 36; experiment: 16 mer peptide ELISA; peptide 36
# [14] = molecular target: T14, IL-13 16 mer peptide 12; experiment: 16 mer peptide ELISA; peptide 12
# [15] = molecular target: T15, IL-13 16 mer peptide 6; experiment: 16 mer peptide ELISA; peptide 6
# [16] = molecular target: T16, IL-13 16 mer peptide 5; experiment: 16 mer peptide ELISA; peptide 5
# [17] = molecular target: T17, IL-13 16 mer peptide 38; experiment: 16 mer peptide ELISA; peptide 38
# [18] = molecular target: T18, IL-13 16 mer peptide 41; experiment: 16 mer peptide ELISA; peptide 41
# [19] = molecular target: T19, IL-13 16 mer peptide 20; experiment: 16 mer peptide ELISA; peptide 20
# [20] = molecular target: T20, IL-13 16 mer peptide 23; experiment: 16 mer peptide ELISA; peptide 23
# [21] = molecular target: T21, IL-13 16 mer peptide 29; experiment: 16 mer peptide ELISA; peptide 29
# [22] = molecular target: T22, IL-13 16 mer peptide 17; experiment: 16 mer peptide ELISA; peptide 17
# [23] = molecular target: T23, IL-13 16 mer peptide 4; experiment: 16 mer peptide ELISA; peptide 4
# [24] = molecular target: T24, IL-13 16 mer peptide 27; experiment: 16 mer peptide ELISA; peptide 27
# [25] = molecular target: T25, IL-13 16 mer peptide 33; experiment: 16 mer peptide ELISA; peptide 33
# [26] = molecular target: T26, IL-13 16 mer peptide 32; experiment: 16 mer peptide ELISA; peptide 32
# [27] = molecular target: T27, IL-13 16 mer peptide 40; experiment: 16 mer peptide ELISA; peptide 40
# [28] = molecular target: T28, IL-13 16 mer peptide 7; experiment: 16 mer peptide ELISA; peptide 7
# [29] = molecular target: T29, IL-13 16 mer peptide 13; experiment: 16 mer peptide ELISA; peptide 13
# [30] = molecular target: T30, IL-13 16 mer peptide 21; experiment: 16 mer peptide ELISA; peptide 21
# [31] = molecular target: T31, IL-13 16 mer peptide 42; experiment: 16 mer peptide ELISA; peptide 42
# [32] = molecular target: T32, IL-13 16 mer peptide 35; experiment: 16 mer peptide ELISA; peptide 35
# [33] = molecular target: T33, IL-13 16 mer peptide 28; experiment: 16 mer peptide ELISA; peptide 28
# [34] = molecular target: T34, IL-13 16 mer peptide 34; experiment: 16 mer peptide ELISA; peptide 34
# [35] = molecular target: T35, IL-13 16 mer peptide 31; experiment: 16 mer peptide ELISA; peptide 31
# [36] = molecular target: T36, IL-13 16 mer peptide 16; experiment: 16 mer peptide ELISA; peptide 16
# [37] = molecular target: T37, IL-13 16 mer peptide 15; experiment: 16 mer peptide ELISA; peptide 15
# [38] = molecular target: T38, IL-13 16 mer peptide 19; experiment: 16 mer peptide ELISA; peptide 19
binder,measurement,setting,value
B1,absorbance at 490 nm,[1],0.057 A490 and 0.055 A490
same,absorbance at 490 nm,[2],0.057 A490 and 0.068 A490
same,absorbance at 490 nm,[3],0.068 A490 and 0.063 A490
same,absorbance at 490 nm,[4],0.061 A490 and 0.07 A490
same,absorbance at 490 nm,[5],0.119 A490 and 0.115 A490
same,absorbance at 490 nm,[6],0.067 A490 and 0.07 A490
same,absorbance at 490 nm,[7],0.09 A490 and 0.076 A490
same,absorbance at 490 nm,[8],0.073 A490 and 0.09 A490
same,absorbance at 490 nm,[9],0.064 A490 and 0.061 A490
same,absorbance at 490 nm,[10],0.062 A490
same,absorbance at 490 nm,[11],0.075 A490 and 0.064 A490
same,absorbance at 490 nm,[12],0.084 A490 and 0.071 A490
same,absorbance at 490 nm,[13],0.073 A490 and 0.074 A490
same,absorbance at 490 nm,[14],0.075 A490 and 0.062 A490
same,absorbance at 490 nm,[15],0.072 A490 and 0.075 A490
same,absorbance at 490 nm,[16],0.063 A490 and 0.065 A490
same,absorbance at 490 nm,[17],0.067 A490 and 0.056 A490
same,absorbance at 490 nm,[18],0.058 A490
same,absorbance at 490 nm,[19],0.06 A490 and 0.104 A490
same,absorbance at 490 nm,[20],0.144 A490 and 0.135 A490
same,absorbance at 490 nm,[21],0.098 A490 and 0.071 A490
same,absorbance at 490 nm,[22],0.064 A490 and 0.06 A490
same,absorbance at 490 nm,[23],0.079 A490 and 0.105 A490
same,absorbance at 490 nm,[24],0.06 A490 and 0.082 A490
same,absorbance at 490 nm,[25],0.088 A490 and 0.084 A490
same,absorbance at 490 nm,[26],0.071 A490 and 0.057 A490
same,absorbance at 490 nm,[27],0.06 A490
same,absorbance at 490 nm,[28],0.061 A490 and 0.072 A490
same,absorbance at 490 nm,[29],0.066 A490 and 0.063 A490
same,absorbance at 490 nm,[30],0.061 A490 and 0.078 A490
same,absorbance at 490 nm,[31],0.104 A490 and 0.108 A490
same,absorbance at 490 nm,[32],0.089 A490 and 0.09 A490
same,absorbance at 490 nm,[33],0.074 A490 and 0.078 A490
same,absorbance at 490 nm,[34],0.082 A490 and 0.067 A490
same,absorbance at 490 nm,[35],0.064 A490 and 0.056 A490
same,absorbance at 490 nm,[36],0.099 A490 and 0.141 A490
same,absorbance at 490 nm,[37],0.081 A490 and 0.129 A490
same,absorbance at 490 nm,[38],0.077 A490 and 0.063 A490
